As usually defined, the Kd is the constant that tells how readily two partners part at equilibrium.

The values that follow come from doi:10.1101/338061.

One series deals with MBD3 MBD (Homo sapiens, UniProt O95983 1-71). The series is described as follows: ITC. A general note: Isothermal titration calorimetry measures the heat released or taken up as one component is titrated into another.
The next series deals with MeCP2 MBD (Homo sapiens, UniProt P51608 80-164). The series is described as follows: ITC.
The next series has as its target T1, MBD1 MBD (Homo sapiens, UniProt Q9UIS9 1-77).
T1 sequence: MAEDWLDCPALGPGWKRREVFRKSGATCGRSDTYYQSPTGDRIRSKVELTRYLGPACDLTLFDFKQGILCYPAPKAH
Briefly: ITC.

For the next series, the target named is MBD2 MBD (Homo sapiens, UniProt Q9UBB5 143-220). Briefly: ITC.
In a further series the target is MBD4 MBD (Homo sapiens, UniProt O95243 55-152). Briefly: ITC.
Series [1] addresses MBD3 MBD (crystallization) (Homo sapiens, UniProt O95983 1-71). The series is described as follows: crystal structure.
A further series concerns the target MBD2 MBD R188A (Homo sapiens, UniProt Q9UBB5 143-220, R188A). Briefly: ITC.
The next series concerns the target MBD2 MBD R166A (Homo sapiens, UniProt Q9UBB5 143-220, R166A). The series is described as follows: ITC.

Sequence of MBD2 MBD (Q9UBB5 143-220): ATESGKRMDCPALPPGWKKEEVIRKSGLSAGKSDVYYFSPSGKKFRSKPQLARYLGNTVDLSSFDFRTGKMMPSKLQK
Sequence of MeCP2 MBD (P51608 80-164): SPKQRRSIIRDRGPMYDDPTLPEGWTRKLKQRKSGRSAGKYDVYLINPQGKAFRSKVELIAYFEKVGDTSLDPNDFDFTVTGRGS
Sequence of MBD3 MBD (O95983 1-71): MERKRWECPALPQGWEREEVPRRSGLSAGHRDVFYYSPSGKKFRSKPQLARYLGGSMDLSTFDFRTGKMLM
Sequence of MBD4 MBD (O95243 55-152): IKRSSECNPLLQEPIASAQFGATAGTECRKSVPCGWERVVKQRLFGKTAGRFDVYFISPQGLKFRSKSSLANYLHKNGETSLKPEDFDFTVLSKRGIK
Sequence of MBD2 MBD R166A (Q9UBB5 143-220 R166A): as the sequence (Q9UBB5 143-220) above, with R24A counted along it
Sequence of MBD2 MBD R188A (Q9UBB5 143-220 R188A): as the sequence (Q9UBB5 143-220) above, with R46A counted along it
Sequence of MBD3 MBD (crystallization) (O95983 1-71): as the sequence (O95983 1-71) above

B1: AmCGT (mCG) (dsDNA)
DNA 1: GCCAACGTTGGC
DNA 2: GCCAACGTTGGC
modifications: 5mC at position 6 of both strands
With B1, the dissociation constant (Kd) with MBD3 MBD stood at 5400 ± 1200 nM; with MeCP2 MBD, 1200 ± 200 nM; with MBD1 MBD, 1000 ± 100 nM; in the series with MBD2 MBD it was 900 ± 200 nM; with MBD4 MBD, 400 ± 100 nM.

B2: AmCGC (dsDNA)
DNA 1: GCCAACGCTGGC
DNA 2: GCCAGCGTTGGC
modifications: 5mC at position 6 of both strands
In the case of B2, the binding result in series [1] was “binds”.

B3: hmCG (dsDNA)
DNA 1: GCCAGCGCTGGC
DNA 2: GCCAGCGCTGGC
modifications: 5hmC at position 6 of both strands
Regarding B3, the Kd with MeCP2 MBD is 32000 ± 4000 nM; with MBD2 MBD, 9700 ± 2300 nM.

B4: GmCGC (dsDNA)
DNA 1: GCCAGCGCTGGC
DNA 2: GCCAGCGCTGGC
modifications: 5mC at position 6 of both strands
For B4, the dissociation constant Kd came to 5200 ± 500 nM with MBD3 MBD and 5600 ± 500 nM with MBD2 MBD R188A. In the series with MBD2 MBD R166A, the binding result was “no binding”.

B5: mCG/TG (dsDNA)
DNA 1: GTCAACGTTACG
DNA 2: CGTAATGTTGAC
modifications: 5mC at position 6 of strand 1
Consider B5, for which the equilibrium dissociation constant (Kd) in the series with MBD3 MBD is 6500 ± 1200 nM; in the series with MeCP2 MBD it was 1200 ± 200 nM; in the series with MBD1 MBD, 2200 ± 300 nM; with MBD2 MBD, 1600 ± 200 nM; with MBD4 MBD, 1500 ± 300 nM.
